From patent US7951356B1, “Tissue factor compositions and kits for coagulation and tumor treatment” (Board of Regents, The University of Texas System, priority 1997, dated 2011)
Changes are numbered by the printed parent chain. Numbers in names are those of the source.

Columns and labels:
[1] = tested on: L540 human Hodgkin's disease tumors; assay: Anti-tumor effects (tumor growth), L540 tumors; format: in vivo, mouse; conditions: day 14; FIG. 19
Description: (§1) Accepted animal models were used to determine whether administration of tTF or immunoglobulin-tTF conjugates suppressed the growth of solid tumors in mice. The tumor test systems were: i) L540 human Hodgkin's disease tumors growing in SCID mice; ii) C1300 Muγ (interferon-secreting) neuroblastoma growing in nu/nu mice; iii) H460 human non-small cell lung carcinoma growing in nu/nu mice. To establish solid tumors, 1.5×10^7 tumor cells were injected subcutaneously into the right anterior flank of SCID or BALB/c nu/nu mice (Charles River Labs., Wilmingham, Mass.). When the tumors had grown to various diameters, mice were assigned to different experimental groups, each containing 4 to 9 mice.
(§2) Mice then received an intravenous injection of 0.5 mg/kg of tTF alone or linked to bispecific antibody. Other mice received equivalent quantities of bispecific antibody alone. The injections were performed over ˜45 seconds into one of the tail veins, followed by 200 μl of saline. The infusions were repeated six days later. Perpendicular tumor diameters were measured at regular intervals and tumor volumes were calculated.

[2] = tested on: HT29 (human colorectal carcinoma) xenograft; assay: Tumor necrosis in HT29 xenografts 24 hours after treatment (Example XII); format: in vivo, mouse; conditions: 24 hours after intravenous injection; tumors 0.5 to 1.0 cm^3; FIG. 23
Description: For these studies, the inventors chose the HT29 (human colorectal carcinoma) xenograft tumor model. HT29 cells (10^7 cells/mouse) were subcutaneously injected into BALB/c nu/nu mice. Tumor dimensions were monitored and animals were treated when the tumor size was between 0.5 and 1.0 cm^3.
Animals were sacrificed 24 hours after treatment, perfused with saline and heparin and exsanguinated. Tumors and organs were collected, formalin fixed and histological sections were prepared. The average area of necrosis in sections of the tumors was quantified and calculated as a percentage of the total area of tumor on the section.

[3] = cited from earlier work
[4] = tested on: citrated mouse plasma; assay: In vitro coagulation assay: tTF constructs localized on A20 lymphoma cells via bispecific antibody B21-2/10H10; format: cell-based; conditions: for coagulation times compared with tTF219 and Factor VIIa at the same concentrations: addition of Factor VIIa at 1 nM or greater, FIG. 22; for coagulation-inducing activity once localized on A20 cells via B21-2/10H10, in words (compared with tTF219): plasma coagulation; for time in which plasma coagulated: FIG. 20; for coagulation time: FIG. 4B
Description: This assay was used to verify that tTF, various derivatives and mutants thereof, and immunoglobulin-tTF conjugates acquire coagulation inducing activity once localized at a cell surface. A20 lymphoma cells (I-A^d positive) (2×10^6 cells/ml, 50 μl) were incubated for 1 h at room temperature with a bispecific antibody (50 μg/ml, 25 μl) consisting of a Fab′ arm of the B21-2 antibody directed against I-A^d linked to a Fab′ arm of the 10H10 antibody directed against a non-inhibitory epitope on tTF. The cells were washed at room temperature and varying concentrations of tTF, derivatives or mutants thereof, or immunoglobulin-tTF conjugates were added for 1 hour at room temperature. The bispecific antibody captures the tTF or tTF linked to immunoglobulin, bringing it into close approximation to the cell surface, where coagulation can proceed.
The cells were washed again at room temperature, resuspended in 75 μl of PBS and warmed to 37° C. […] The time for the first fibrin strands to form was recorded. Clotting time was plotted against tTF concentration and curves compared with standard curves prepared using standard tTF219 preparations.

[5] = Toxicity to mice of tTF mutants and Factor VIIa given separately; format: in vivo
[6] = tested on: C1300 Muγ mouse neuroblastoma; assay: In vivo tumor thrombosis, C1300 Muγ tumors
From the text: (§3) Tumor test systems were of four types: i) 3LL mouse lung carcinoma growing subcutaneously in C57BL/6 mice; ii) C1300 mouse neuroblastoma growing subcutaneously in BALB/c nu/nu mice; iii) HT29 human colorectal carcinoma growing subcutaneously in BALB/c nu/nu mice; and iv) C1300 Muγ mouse neuroblastoma growing subcutaneously in BALB/c nu/nu mice. The C1300 Muγ tumor is an interferon-γ secreting transfectant derived from the C1300 tumor (Watanabe et al., 1989).
Further, the C1300 (Muγ) tumor model of (Burrows, et al., 1992; incorporated herein by reference) was employed and modified as follows: (i) antibody B21-2 was used to target I-A^d; (ii) C1300(Muγ) tumor cells, a subline of C1300(Muγ) 12 tumor cells, that grew continuously in BALB/c nu/nu mice were used; and (iii) tetracycline was […] the mice's drinking water to prevent gut bacteria from inducing I-A^d on the gastrointestinal epithelium.
(§4) To establish tumors, 10^6 to 1.5×10^7 tumor cells were injected subcutaneously into the right anterior flank of the mice. When tumors had grown to various sizes, mice were randomly assigned to different study groups. Mice then received an intravenous injection of 0.5 mg/kg of tTF alone or linked to IgG, Fab′, or bispecific antibody. Other mice received equivalent quantities IgG, Fab′ or bispecific antibody alone. The injections were performed slowly into one of the tail veins over approximately 45 seconds, usually followed by 200 μl of saline.
(§5) Twenty-four hours after being injected with tTF or immunoglobulin-tTF conjugates, the mice were anesthetized with metophane and were exsanguinated by perfusion with heparinized saline. Tumors and normal tissues were excised and immediately fixed in 3% (v/v) formalin. Paraffin sections were cut and stained with hematoxylin and eosin. Blood vessels having open lumens containing erythrocytes and blood vessels containing thrombi were counted. Paraffin sections were cut and stained with hematoxylin and eosin or with Martius Scarlet Blue (MSB) trichrome for the detection of fibrin.

[7] = tested on: C1300 mouse neuroblastoma; assay: In vivo tumor thrombosis, C1300 tumors
From the text: as §3, §4
(§6) Twenty-four hours after being injected with tTF or immunoglobulin-tTF conjugates, the mice were anesthetized with metophane and were exsanguinated by perfusion with heparinized saline. Tumors and normal tissues were excised and immediately fixed in 3% (v/v) formalin. […] Blood vessels having open lumens containing erythrocytes and blood vessels containing thrombi were counted. […]

[8] = tested on: 3LL mouse lung carcinoma; assay: In vivo tumor thrombosis, 3LL tumors; conditions: C57BL/6 mice, large (>800 mm^3) tumors; FIG. 11
From the text: as §3, §4, §6

[9] = tested on: C1300 Muγ (interferon-secreting) neuroblastoma; assay: Anti-tumor effects (tumor growth), C1300 Muγ tumors; format: in vivo, mouse
Description: as §1, §2

[10] = tested on: H460 human non-small cell lung carcinoma; assay: Anti-tumor effects (tumor growth), H460 tumors; format: in vivo, mouse; conditions: FIG. 13
Description: as §1, §2

[11] = tested on: HT29 human colorectal carcinomas; assay: Anti-tumor effects (tumor growth), HT29 tumors; format: in vivo, mouse; conditions: nu/nu mice, large (1200 mm^3) tumors, intravenous; FIG. 14
Description: Anti-tumor effects were also observed in mice bearing HT29 human colorectal carcinomas (FIG. 14). Nu/nu mice bearing large (1200 mm^3) tumors on their flanks were injected intravenously with tTF219 or PBS (control), and growth of the tumors was monitored each day for 10 days. The tumors in the tTF219 treated mice discontinued growth for about 7 days after treatment, whereas the tumors in mice treated with PBS continued to grow unchecked.

[12] = Toxicity and histology of normal organs in treated tumor-bearing mice; format: in vivo, mouse; conditions: 30 minutes or 24 hours after administration
From the text: as §5

[13] = tested on: factor X; conditions: appropriate phospholipid membrane environment; Ruf, et al., 1991b; cited from earlier work

## COc1cc([C@@H]2c3cc4c(cc3[C@@H](O[C@@H]3O[C@@H]5CO[C@@H](C)O[C@H]5[C@H](O)[C@H]3O)[C@H]3COC(=O)[C@H]23)OCO4)cc(OC)c1O [etoposide]
[1]
  average tumor volume: 1400 mm^3

## Factor VIIa: recombinant human Factor VIIa
[2]
  necrosis in tumor sections, in words: some necrosis
[3]
  half-life in vivo: approximately two

B1: tTF219 (G164A): amino acid 164 (Gly) of tTF219 replaced by Ala; SEQ ID NO:9 (protein)
chain: SGTTNTVAAYNLTWKSTNFKTILEWEPKPVNQVYTVQISTKSGDWKSKCFYTTDTECDLTDEIVKDVKQTYLARVFSYPAGNVESTGSAGEPLYENSPEFTPYLETNLGQPTIQSFEQVGTKVNVTVEDERTLVRRNNTFLSLRDVFGKDLIYTLYYWKSSSSAKKTAKTNTNEFLIDVDKGENYCFSVQAVIPSRTVNRKSTDSPVECMGQEKGEFRE
[4]
  coagulation times compared with tTF219 and Factor VIIa at the same concentrations: only marginally slower coagulation times
  coagulation-inducing activity once localized on A20 cells via B21-2/10H10, in words (compared with tTF219): Weak coagulation
[2]
  necrosis in tumor sections, in words: some necrosis
[5]
  toxicity to mice: practically non-toxic

B2: tTF219 (W158R): tryptophan at amino acid 158 of tTF219 mutated to an arginine; SEQ ID NO:8 (protein)
chain: B1 chain with W158R, A164G
[4]
  coagulation times compared with tTF219 and Factor VIIa at the same concentrations: only marginally slower coagulation times
  coagulation-inducing activity once localized on A20 cells via B21-2/10H10, in words (compared with tTF219): Weak coagulation
[5]
  toxicity to mice: practically non-toxic

B3: tTF219: truncated Tissue Factor: residues 1-219 of TF plus an additional glycine at the N-terminus; SEQ ID NO:1 (protein)
chain: GSGTTNTVAAYNLTWKSTNFKTILEWEPKPVNQVYTVQISTKSGDWKSKCFYTTDTECDLTDEIVKDVKQTYLARVFSYPAGNVESTGSAGEPLYENSPEFTPYLETNLGQPTIQSFEQVGTKVNVTVEDERTLVRRNNTFLSLRDVFGKDLIYTLYYWKSSSSGKKTAKTNTNEFLIDVDKGENYCFSVQAVIPSRTVNRKSTDSPVECMGQEKGEFRE
[4]; 10^−10 M tTF219, absence of Factor VIIa
  time in which plasma coagulated: 60 s
[4]; 10^−10 M tTF219, presence of 13.5 nM Factor VIIa
  time in which plasma coagulated: 20 s
[4]; 20,000 molecules per cell
  coagulation time: 140 s
[4]; 300,000 molecules of tTF per cell
  coagulation time: 40 s
[4]; A20 cells incubated without both specificities needed to bind tTF to the cells, FIG. 4A
  effect on coagulation time: no effect on coagulation time
[4]; presence of 0.1 nM Factor VIIa
  increase in coagulation-inducing potency of tTF: 2-5 fold
[4]; tTF bound to A20 cells by B21-2/10H10, mouse plasma, FIG. 4A
  time until fibrin strands were visible after the addition of plasma: 36 s
[6]; 24 hours after injection, large tumors, FIG. 9
  thrombosis of tumor vessels: practically all vessels in all regions of the tumor were thrombosed
[6]; small (<500 mm^3) tumors
  effect on tumor vessels: largely unaffected
[6]; starting within 30 minutes, progressively more marked up to 24 hours
  gross appearance of tumors: blackened, bruised appearance
[7]; large tumors (>1000 mm^3), 24 hours after injection, FIG. 10
  thrombosis of tumor vessels: virtually all vessels were thrombosed
[7]; small (<500 mm^3) tumors
  effect on tumor vessels: largely unaffected
[8]
  tumor vessels thrombosed, on average: 62%
[9]; fourteen days after the first injection, small (300 mm^3) tumors, treatment repeated 6 days later, FIG. 18
  tumor size relative to controls receiving diluent alone: 75%
[9]; large (0.8 to 1.0 cm diameter) tumors, two intravenous injections 6 days apart, FIG. 12A
  tumor response: grew significantly more slowly
[9]; one week after the second treatment, small (300 mm^3) tumors at start
  tumor size relative to tumors in mice receiving diluent alone: 60%
[9]; small (300 mm^3) tumors, 16-20 μg intravenously, FIG. 12B
  effect of the first treatment on tumor growth: slight inhibitory effect on tumor growth
[9]; treatment repeated one week later, FIG. 12B
  effect of the second treatment on tumor growth: substantially greater, statistically significant (P<0.01), effect on tumor growth
[10]; second treatment given when tumors were 900 mm^3
  tumor volume to which tumors regressed before regrowing: 550 mm^3
[10]; tumors small (250 mm^3)
  effect of the first treatment: little effect on growth rate
[11]
  time for which tumors discontinued growth after treatment: about 7 days
[2]
  necrosis in tumor sections, in words: some necrosis
[12]
  thrombi or abnormalities in paraffin sections of liver, kidney, lung, intestine, heart, brain, adrenals, pancreas, spleen: neither thrombi, nor histological or morphological abnormalities were visible
[13]
  times less factor X-activating activity relative to native transmembrane TF: approximately 10^5 times
